Consider two molecules from paper PMC4650713 (2015).

This assay addresses BaxΔC21 (UniProt Q07812 1-171, C62S | C126S). The experiment in a line: SPR.

Substitutions are numbered along the chain they refer to. Numbers in names are those of the source.

Chain of BaxΔC21 (Q07812 1-171 C62S/C126S): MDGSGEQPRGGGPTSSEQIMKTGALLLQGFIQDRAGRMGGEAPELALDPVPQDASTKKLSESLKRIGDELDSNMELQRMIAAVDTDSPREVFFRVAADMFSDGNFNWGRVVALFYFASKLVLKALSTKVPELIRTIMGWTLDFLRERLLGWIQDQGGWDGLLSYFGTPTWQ

B1: BidBH3 peptide (peptide)
peptide: SESQEDIIRNIARHLAQVGDSMDRSIPPGLVNGL
With B1, the IC50 amounted to 306 nM.

B2: BidBH3 A91R (peptide)
peptide: B1 peptide with A16R
B2: the IC50 amounted to 41 nM.
